Results on 13 molecules are retold here after US9212231B2, “TRAIL R2-specific multimeric scaffolds” (MEDIMMUNE, LLC, dated 2015).

Usually Kd stands for the equilibrium constant for the complex coming apart. A word on the IC50: it is the concentration at which inhibition is half-maximal.

Experiment [1] addresses TRAIL R2 (recombinant, form not given) (human, UniProt O14763, biotin (in the capture ELISA and the competition ELISA of Example 14)). In words: SPR (ProteOn XPR36), TRAIL R2 immobilised, equilibrium analysis.
Experiment [2] deals with T1, TRAIL R2 expressed on the cell surface (human, UniProt O14763). In words: cell-based or functional assay.
For experiment [3], the target named is Murine CD40L on the Th2 cell line D10.G4.1 (murine, UniProt P27548). In words: cell-based or functional assay.
Experiment [4] addresses recombinant Murine CD40L (E. coli produced) (murine, UniProt P27548). As to the kind of experiment: biosensor competition: inhibition of Murine CD40L (0.5 µg/ml) binding to immobilised Murine CD40-Fc.
The target of experiment [5] is T1, TRAIL R2 expressed on the cell surface. As to the kind of experiment: cell-based or functional assay. This is another data set of the same source.
The target is the same in experiment [6]. As to the kind of experiment: cell-based or functional assay. The source holds these as a separate data set.
The target is the same in experiment [7]. In words: cell-based or functional assay. The source holds these as a separate data set.

Changes are numbered by the printed parent chain. Several values for one entry are separate records, joined by “and”; a condition that tells them apart may be missing. Equal values may be shown once.

B1: C4 (designed binder)
chain: AIEVKDVTDTTALITWAKPWVDPPPLWGCELAYGIKDVPGDRTTIDLQQKHTAYSIGNLKPDTEYEVSLICFDPYNKRNVPAKETFTTGGGTLGHHHHHHHH
Take B1: in experiment [1], the “Fold Improvement (Kd, against lead clone 1C12)” value (“Fold Improvement” below) was 83 fold and the Kd is 50 nM.

B2: G6 (designed binder)
chain: B1 chain with N76G, K77M, N79S, V80K
As for B2, in experiment [1], the “Fold Improvement” value came out at 96 fold and the Kd is 43 nM.

B3: A4(1E11) (designed binder)
chain: SGGGGSAIEVKDVTDTTALITWAKPWVDPPPLWGCELAYGIKDVPGDRTTIDLQQKHTAYSIGNLKPDTEYEVSLICFDPYGAKSNPAKETFTTGGGGSGGGGSGGGGSAIEVKDVTDTTALITWAKPWVDPPPLWGCELAYGIKDVPGDRTTIDLQQKHTAYSIGNLKPDTEYEVSLICFDPYGAKSNPAKETFTTGGGGSGGGGSGGGGSAIEVKDVTDTTALITWAKPWVDPPPLWGCELAYGIKDVPGDRTTIDLQQKHTAYSIGNLKPDTEYEVSLICFDPYGAKSNPAKETFTTGGGGSGGGGSGGGGSAIEVKDVTDTTALITWAKPWVDPPPLWGCELAYGIKDVPGDRTTIDLQQKHTAYSIGNLKPDTEYEVSLICFDPYGAKSNPAKETFTTGGGGSGGGGSGTGSAMASGGGGSAIEVKDVTDTTALITWAKPWVDPPPLWGCELAYGIKDVPGDRTTIDLQQKHTAYSIGNLKPDTEYEVSLICFDPYGAKSNPAKETFTTGGGGSGGGGSGGGGSAIEVKDVTDTTALITWAKPWVDPPPLWGCELAYGIKDVPGDRTTIDLQQKHTAYSIGNLKPDTEYEVSLICFDPYGAKSNPAKETFTTGGGGSGGGGSGTLGHHHHHHHH
Consider B3, for which, in experiment [2], the “EC50, killing of H2122 cells” value stood at 0.0009 nM and the “Maximum Inhibition %, H2122 cells” value came out at 97%.

B4: C4(M13) (designed binder)
chain: AIEVKDVTDTTALITWHDAFGYDFGCELTYGIKDVPGDRTTIDLPDHFHNYSIGNLKPDTEYEVSLICANDHGFDSNPAKETFTTGGGGSGGGGSGGGGSGGGGSGGGGSGGGGSGGGGSRLDAPGQIEVKDVTDTTALITWHDAFGYDFGCELTYGIKDVPGDRTTIDLPDHFHNYSIGNLKPDTEYEVSLICANDHGFDSNPAKETFTTGGGTLGHHHHHHHH
Regarding B4, the “IC50, inhibition of Murine CD40L-induced CD86 expression on CD19 gated B cells” value (“IC50, inhibition” below) in experiment [3] is 100000 to 200000 nM. Besides, in experiment [4], the IC50 was 5 nM and 6 nM.

B5: M13 (M13) (designed binder)
chain: AIEVKDVTDTTALITWHDAFGYDFGCELTYGIKDVPGDRTTIDLPDHFHNYSIGNLKPDTEYEVSLICANDHGFDSNPAKETFTTGGGTLGHHHHHHHH
As to B5, in experiment [4], the 50% inhibitory concentration (IC50) was 71 nM.

B6: C1(M13) (designed binder)
chain: AIEVKDVTDTTALITWHDAFGYDFGCELTYGIKDVPGDRTTIDLPDHFHNYSIGNLKPDTEYEVSLICANDHGFDSNPAKETFTTAGGGGSRLDAPGQIEVKDVTDTTALITWHDAFGYDFGCELTYGIKDVPGDRTTIDLPDHFHNYSIGNLKPDTEYEVSLICANDHGFDSNPAKETFTTGGGTLGHHHHHHHH
With B6, in experiment [3], the “IC50, inhibition” value lay in the range of 100000 to 200000 nM. Further, the IC50 in experiment [4] turned out to be 29 nM.

B7: 1C12 (designed binder)
chain: AIEVKDVTDTTALITWAKPEKWDGSIYGCELAYGIKDVPGDRTTIDLNSRHTAYSIGNLKPDTEYEVSLICFTPYGAKSNPAKETFTTGGGTLGHHHHHHHH
With B7, the Kd in experiment [1] was determined as 4130 nM.

B8: G3 (designed binder)
chain: B7 chain with G24P, S25P, I26L, Y27W
As to B8, in experiment [1], the “Fold Improvement” value turned out to be 10 fold and the dissociation constant (Kd) is 422 nM.

B9: C3(M13) (designed binder)
chain: AIEVKDVTDTTALITWHDAFGYDFGCELTYGIKDVPGDRTTIDLPDHFHNYSIGNLKPDTEYEVSLICANDHGFDSNPAKETFTTGGGGSGGGGSGGGGSGGGGSGGGGSRLDAPGQIEVKDVTDTTALITWHDAFGYDFGCELTYGIKDVPGDRTTIDLPDHFHNYSIGNLKPDTEYEVSLICANDHGFDSNPAKETFTTGGGTLGHHHHHHHH
With B9, in experiment [3], the “IC50, inhibition” value fell in the range of 100000 to 200000 nM. For the same molecule, the concentration for half-maximal inhibition (IC50) in experiment [4] was 5 nM and 6 nM.

B10: C2(M13) (designed binder)
chain: AIEVKDVTDTTALITWHDAFGYDFGCELTYGIKDVPGDRTTIDLPDHFHNYSIGNLKPDTEYEVSLICANDHGFDSNPAKETFTTGGGGSGGGGSGGGGSRLDAPGQIEVKDVTDTTALITWHDAFGYDFGCELTYGIKDVPGDRTTIDLPDHFHNYSIGNLKPDTEYEVSLICANDHGFDSNPAKETFTTGGGTLGHHHHHHHH
As for B10, the “IC50, inhibition” value in experiment [3] lay within 100000 to 200000 nM. Besides, in experiment [4], the IC50 was 5 nM and 6 nM.

B11: A5(1E11) (designed binder)
chain: SGGGGSAIEVKDVTDTTALITWAKPWVDPPPLWGCELAYGIKDVPGDRTTIDLQQKHTAYSIGNLKPDTEYEVSLICFDPYGAKSNPAKETFTTGGGGSGGGGSGGGGSAIEVKDVTDTTALITWAKPWVDPPPLWGCELAYGIKDVPGDRTTIDLQQKHTAYSIGNLKPDTEYEVSLICFDPYGAKSNPAKETFTTGGGGSGGGGSGGGGSAIEVKDVTDTTALITWAKPWVDPPPLWGCELAYGIKDVPGDRTTIDLQQKHTAYSIGNLKPDTEYEVSLICFDPYGAKSNPAKETFTTGGGGSGGGGSGGGGSAIEVKDVTDTTALITWAKPWVDPPPLWGCELAYGIKDVPGDRTTIDLQQKHTAYSIGNLKPDTEYEVSLICFDPYGAKSNPAKETFTTGGGGSGGGGSGTGSAMASGGGGSAIEVKDVTDTTALITWAKPWVDPPPLWGCELAYGIKDVPGDRTTIDLQQKHTAYSIGNLKPDTEYEVSLICFDPYGAKSNPAKETFTTGGGGSGGGGSGGGGSAIEVKDVTDTTALITWAKPWVDPPPLWGCELAYGIKDVPGDRTTIDLQQKHTAYSIGNLKPDTEYEVSLICFDPYGAKSNPAKETFTTGGGGSGGGGSGGGGSAIEVKDVTDTTALITWAKPWVDPPPLWGCELAYGIKDVPGDRTTIDLQQKHTAYSIGNLKPDTEYEVSLICFDPYGAKSNPAKETFTTGGGGSGGGGSGGGGSAIEVKDVTDTTALITWAKPWVDPPPLWGCELAYGIKDVPGDRTTIDLQQKHTAYSIGNLKPDTEYEVSLICFDPYGAKSNPAKETFTTGGGGSGGGGSGTLGHHHHHHHH
Take B11: in experiment [2], the “EC50, killing of H2122 cells” value is 0.0006 nM and the “Maximum Inhibition %, H2122 cells” value was 97%.

B12: A5(G6) (designed binder)
chain: SGGGGSAIEVKDVTDTTALITWAKPWVDPPPLWGCELAYGIKDVPGDRTTIDLQQKHTAYSIGNLKPDTEYEVSLICFDPYGMRSKPAKETFTTGGGGSGGGGSGGGGSAIEVKDVTDTTALITWAKPWVDPPPLWGCELAYGIKDVPGDRTTIDLQQKHTAYSIGNLKPDTEYEVSLICFDPYGMRSKPAKETFTTGGGGSGGGGSGGGGSAIEVKDVTDTTALITWAKPWVDPPPLWGCELAYGIKDVPGDRTTIDLQQKHTAYSIGNLKPDTEYEVSLICFDPYGMRSKPAKETFTTGGGGSGGGGSGGGGSAIEVKDVTDTTALITWAKPWVDPPPLWGCELAYGIKDVPGDRTTIDLQQKHTAYSIGNLKPDTEYEVSLICFDPYGMRSKPAKETFTTGGGGSGGGGSGTGSAMASGGGGSAIEVKDVTDTTALITWAKPWVDPPPLWGCELAYGIKDVPGDRTTIDLQQKHTAYSIGNLKPDTEYEVSLICFDPYGMRSKPAKETFTTGGGGSGGGGSGGGGSAIEVKDVTDTTALITWAKPWVDPPPLWGCELAYGIKDVPGDRTTIDLQQKHTAYSIGNLKPDTEYEVSLICFDPYGMRSKPAKETFTTGGGGSGGGGSGGGGSAIEVKDVTDTTALITWAKPWVDPPPLWGCELAYGIKDVPGDRTTIDLQQKHTAYSIGNLKPDTEYEVSLICFDPYGMRSKPAKETFTTGGGGSGGGGSGGGGSAIEVKDVTDTTALITWAKPWVDPPPLWGCELAYGIKDVPGDRTTIDLQQKHTAYSIGNLKPDTEYEVSLICFDPYGMRSKPAKETFTTGGGGSGGGGSGTLGHHHHHHHH
On to B12, for which, in experiment [5], the “IC50 of cell killing, 786-0 cells (CellTiter-Glo)” value is > 10 nM; the “IC50 of cell killing, BT-649 cells (CellTiter-Glo)” value was > 10 nM; the “IC50 of cell killing, CaCo-2 cells (CellTiter-Glo)” value came out at 0.044 nM; the “IC50 of cell killing, HPAF-II cells (CellTiter-Glo)” value amounted to 0.016 nM. For the same molecule, in experiment [5], the “IC50 of cell killing, HT29 cells (CellTiter-Glo)” value was 0.01 nM; the “IC50 of cell killing, Hep3B cells (CellTiter-Glo)” value amounted to 0.023 nM; the “IC50 of cell killing, Hep G2 cells (CellTiter-Glo)” value was 0.04 nM; the “IC50 of cell killing, Hs766T cells (CellTiter-Glo)” value was > 10 nM. Also, in experiment [5], the “IC50 of cell killing, LoVo cells (CellTiter-Glo)” value is 0.005 nM; the “IC50 of cell killing, NCI-H23 cells (CellTiter-Glo)” value is > 10 nM; the “IC50 of cell killing, NCI-H522 cells (CellTiter-Glo)” value is > 10 nM; the “IC50 of cell killing, SKHEP-1 cells (CellTiter-Glo)” value turned out to be 0.055 nM. Moreover, in experiment [5], the “IC50 of cell killing, SNB-75 cells (CellTiter-Glo)” value was > 10 nM; the “IC50 of cell killing, SNU-387 cells (CellTiter-Glo)” value was > 10 nM; the “IC50 of cell killing, SNU-398 cells (CellTiter-Glo)” value is > 10 nM; the “IC50 of cell killing, SNU-475 cells (CellTiter-Glo)” value is > 10 nM. Moreover, in experiment [5], the “IC50 of cell killing, SW820 cells (CellTiter-Glo)” value was > 10 nM; the “IC50 of cell killing, SW837 cells (CellTiter-Glo)” value is > 10 nM; the “IC50 of cell killing, T84 cells (CellTiter-Glo)” value was found to be 0.247 nM. Further, in experiment [6], the “EC50, killing of Jurkat cells” value is 0.0001 nM and the “Maximum Inhibition %, Jurkat cells” value amounted to 100%. Moreover, in experiment [7], the “EC50, killing of Colo205 cells” value worked out at 0.0005 nM and the “Maximum Inhibition %, Colo205 cells” value was determined as 100%.

B13: A3 (G6) (designed binder)
chain: SGGGGSAIEVKDVTDTTALITWAKPWVDPPPLWGCELAYGIKDVPGDRTTIDLQQKHTAYSIGNLKPDTEYEVSLICFDPYGMRSKPAKETFTTGGGGSGGGGSGGGGSAIEVKDVTDTTALITWAKPWVDPPPLWGCELAYGIKDVPGDRTTIDLQQKHTAYSIGNLKPDTEYEVSLICFDPYGMRSKPAKETFTTGGGGSGGGGSGGGGSAIEVKDVTDTTALITWAKPWVDPPPLWGCELAYGIKDVPGDRTTIDLQQKHTAYSIGNLKPDTEYEVSLICFDPYGMRSKPAKETFTTGGGGSGGGGSGGGGSAIEVKDVTDTTALITWAKPWVDPPPLWGCELAYGIKDVPGDRTTIDLQQKHTAYSIGNLKPDTEYEVSLICFDPYGMRSKPAKETFTTGGGGSGGGGSGTLGHHHHHHHH
B13: in experiment [6], the “EC50, killing of Jurkat cells” value came to 0.05 nM and the “Maximum Inhibition %, Jurkat cells” value was 83%. For the same molecule, in experiment [7], the “EC50, killing of Colo205 cells” value is 0.04 nM and the “Maximum Inhibition %, Colo205 cells” value was found to be 97%.
